Patent EP4702992A1, “ANTIBODY-DRUG CONJUGATE” (priority 2023, dated 2024)

How the values were obtained:
[1] = molecular target: DLL3 on the surface of NCI-H209, SHP77, NCI-H526, NCI-H82 and NCI-H69 cells (human) (UniProt Q9NYJ7); experiment: flow cytometry, D-ADC55-1-8 (15 µg/mL) on SHP77 cells, anti-human IgG Alexa Fluor 488
[2] = molecular target: DLL3 on the surface of NCI-H209, SHP77, NCI-H526, NCI-H82 and NCI-H69 cells (human) (UniProt Q9NYJ7); experiment: flow cytometry, D-ADC55-1-8 (15 µg/mL) on NCI-H82 cells, anti-human IgG Alexa Fluor 488
[3] = molecular target: DLL3 on the surface of NCI-H209, SHP77, NCI-H526, NCI-H82 and NCI-H69 cells (human) (UniProt Q9NYJ7); experiment: flow cytometry, D-ADC55-1-8 (15 µg/mL) on NCI-H209 cells, anti-human IgG Alexa Fluor 488
[4] = molecular target: DLL3 on the surface of NCI-H209, SHP77, NCI-H526, NCI-H82 and NCI-H69 cells (human) (UniProt Q9NYJ7); experiment: flow cytometry, D-ADC55-1-8 (15 µg/mL) on NCI-H526 cells, anti-human IgG Alexa Fluor 488
[5] = molecular target: DLL3 on the surface of NCI-H209, SHP77, NCI-H526, NCI-H82 and NCI-H69 cells (human) (UniProt Q9NYJ7); experiment: flow cytometry, D-ADC55-1-8 (15 µg/mL) on NCI-H69 cells, anti-human IgG Alexa Fluor 488

Sequence of DLL3 on the surface of NCI-H209, SHP77, NCI-H526, NCI-H82 and NCI-H69 cells (human) (Q9NYJ7 27-618): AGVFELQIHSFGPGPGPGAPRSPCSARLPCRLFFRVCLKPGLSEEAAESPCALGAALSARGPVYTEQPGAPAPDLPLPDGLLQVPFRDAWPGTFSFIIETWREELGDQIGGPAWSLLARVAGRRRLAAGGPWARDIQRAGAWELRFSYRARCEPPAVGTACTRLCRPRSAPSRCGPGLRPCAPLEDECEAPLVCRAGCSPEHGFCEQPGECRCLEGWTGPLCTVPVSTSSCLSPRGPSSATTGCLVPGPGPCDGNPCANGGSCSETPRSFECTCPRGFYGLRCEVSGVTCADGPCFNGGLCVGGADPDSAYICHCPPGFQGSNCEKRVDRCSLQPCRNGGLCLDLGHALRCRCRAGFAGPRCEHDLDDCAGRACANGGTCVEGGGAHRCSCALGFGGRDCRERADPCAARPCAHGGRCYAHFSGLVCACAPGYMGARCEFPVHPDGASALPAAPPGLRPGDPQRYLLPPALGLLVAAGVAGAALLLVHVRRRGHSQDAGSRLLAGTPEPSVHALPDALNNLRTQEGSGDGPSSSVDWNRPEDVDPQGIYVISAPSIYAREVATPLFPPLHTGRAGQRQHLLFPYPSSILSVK

B1: D-ADC55-1-8 (antibody, human IgG1, kappa, L234A L235A, V domains shown)
VH: QVQLVQSGAEVKKPGASVKVSCKASGYTFTDYYMKWVRQAPGQRLEWMGAFNLNNGDTFYNQKFKGRVTITRDTSASTAYMELSSLRSEDTAVYYCARDVYGYGDYWGQGTSVTVSS
VL: DIVMTQSPDSLAVSLGERATINCRASKSVSTSGYSYMHWYQQKPGQPPKLLIYLASNLDSGVPDRFSGSGSGTDFTLTISSLQAEDVAVYYCQHSRELPYTFGGGTKLEIKR
modifications: linker-drug LD55-1 (exatecan payload) conjugated to sulfhydryls of reduced interchain disulfide cysteines; average DAR 8.0 per antibody
DLL3+ % [1]: 35.8%
Experimental well: negative control ratio [1]: 3.23
DLL3+ % [2]: 11.2%
Experimental well: negative control ratio [2]: 5.02
DLL3+ % [3]: 44.4%
Experimental well: negative control ratio [3]: 7.73
DLL3+ % [4]: 29.1%
Experimental well: negative control ratio [4]: 3.73
DLL3+ % [5]: 5.29%
Experimental well: negative control ratio [5]: 3.03
